From PMC2817712

Molecular target: CheY6 (wild type) with an engineered C-terminal biotinylation tag, for SPR surfaces (R. sphaeroides)
Test: SPR; Biacore T100, 25°C; response regulator biotinylated in a C-terminal tag and held on streptavidin (200-1,500 RU); CheA3P1 injected at 120 nM to 2 mM; standard buffer (30 mM Hepes pH 7.5, 150 mM NaCl, 5 mM sodium acetate, 2 mM manganese chloride, 2 mM TCEP) with 0.05% Tween 20; equilibrium binding, 1:1 Langmuir model

CheY6 (wild type) with an engineered C-terminal biotinylation tag, for SPR surfaces (R. sphaeroides), sequence (Q8KLS1 entry or part of it, stated change not applied): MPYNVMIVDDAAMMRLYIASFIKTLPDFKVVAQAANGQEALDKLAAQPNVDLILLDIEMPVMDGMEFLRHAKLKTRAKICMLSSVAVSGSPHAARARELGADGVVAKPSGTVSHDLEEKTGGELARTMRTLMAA

Kd: 218 µM
Substance: CheA3P1, the isolated P1 (Hpt, histidine-containing phosphotransfer) domain of CheA3 (residues 1-135), unphosphorylated (domain or fragment)
